In patent publication US20120225464A1, “Specific Arabinose Transporter of the Plant Arabidopsis Thaliana for the Construction of Pentose-Fermenting Yeasts” (priority 2011, published 2012):

Experiments:
Type in all cases: cell-based, S. cerevisiae
strain MKY06-3P = assay: Sugar consumption / fermentation analysis by HPLC in SC medium under aerobic conditions; details: transporter overexpressed
Protocol: (§1) Fermentation analysis of the MKY06-3P containing the plasmids p426-opt-AraT-S (A) or pTHSTp2 (B) in SC medium with 2% glucose under aerobic conditions. As controls the strain MKY06-3P was used containing the plasmids pHL125^re (positive) or p426HXT7-6HIS (negative). The strains with the various plasmids were adducted in SC medium with 2% glucose and inoculated with an OD600nm=1 in 50 ml SC medium. The incubation took place in 300 ml shaking flasks under aerobic conditions at 30° C. Samples were taken several times during the 120 hours to determine the sugar concentration via HPLC analysis.
as §1, with “arabinose” for “glucose”, “analysis. […]” for “analysis.”
The samples taken in the tests were centrifuged for 10 min at 3000 R/min, in order to pellet the yeast cells. […] The sugar concentrations were measured by means of BioLC (Dionex). […]

Stp2 = biological target: T1, Stp2 (Arabidopsis thaliana, UniProt Q9LNV3); assay: Inhibition of Stp2-mediated L-arabinose uptake by added sugar; details: addition of 10 mM of the sugar
T1 construct: The open reading frame (ORF) of AtStp2 was amplified and cloned behind the shortened strong HXT7 promoter; expressed in transfected cells; host or cells: S. cerevisiae strain MKY06 (all hexose transporters deleted), plasmid pTHStp2
T1 sequence (Q9LNV3 1-498): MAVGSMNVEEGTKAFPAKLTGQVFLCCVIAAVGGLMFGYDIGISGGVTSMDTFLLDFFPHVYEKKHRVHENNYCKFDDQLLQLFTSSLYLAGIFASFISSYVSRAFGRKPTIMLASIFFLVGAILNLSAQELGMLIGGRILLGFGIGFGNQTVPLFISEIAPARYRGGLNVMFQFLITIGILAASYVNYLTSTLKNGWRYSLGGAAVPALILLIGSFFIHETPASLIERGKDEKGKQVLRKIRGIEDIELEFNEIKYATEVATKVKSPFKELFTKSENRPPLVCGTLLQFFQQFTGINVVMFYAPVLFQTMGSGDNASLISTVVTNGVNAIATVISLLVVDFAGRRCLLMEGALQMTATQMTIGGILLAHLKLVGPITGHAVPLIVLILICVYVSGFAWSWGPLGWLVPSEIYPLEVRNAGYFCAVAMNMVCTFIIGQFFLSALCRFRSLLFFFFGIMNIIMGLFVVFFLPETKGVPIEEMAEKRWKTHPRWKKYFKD
Protocol: (§2) The initial rates of sugar uptake were measured as follows: a 50-0 aliquot of a sugar solution containing (1-^3H)-labeled L-arabinose, (U-^14C) labeled O-glucose (American Radiolabeled Chemicals Inc.) or (1-^14C) labeled D-galactose (Amersham) was incubated at 30° C. and was mixed with 100 μl of yeast suspensions having the same temperature, resulting in final sugar concentrations of 10 mM L-arabinose, D-glucose and D-galactose. For determination of L-arabinose uptake kinetics 0.1, 1, 5, 10, and 50 mM L-arabinose were used. After different time intervals 10 ml of ice-cold 100 mM potassium phosphate buffer at pH 6.5 with 500 mM. D-glucose was added, and the suspension was immediately filtrated using Durapore® membrane filters (0.22 μm pore size, Millipore). The filter was washed two times with 10 ml of cold potassium phosphate buffer with 500 mM D-glucose. […] Rotiszint® eco plus (Roth) and the radioactivity measured in a scintillation counter. Uptake of radioactivity was nearly linear in time intervals up to 2 minutes. […] Dry weight was determined by filtering 10 ml of the culture through a pre-weighted nitrocellulose filter (0.45 μm pore size; Roth, Germany). […] KM and vmax values were calculated using the program GraphPad Prism 5.0.
(§3) For L-arabinose, uptake kinetics were determined by measuring L-arabinose uptake at various concentrations between 0.1 and 50 mM during 2-minute time intervals. […]

Gal2 = biological target: T2, Gal2 (Saccharomyces cerevisiae, UniProt P13181); assay: Inhibition of Gal2-mediated L-arabinose uptake by added sugar; details: addition of 10 mM of the sugar
T2 construct: expressed in transfected cells; host or cells: S. cerevisiae strain MKY06 (all hexose transporters incl. gal2 deleted)
T2 sequence (P13181 1-574): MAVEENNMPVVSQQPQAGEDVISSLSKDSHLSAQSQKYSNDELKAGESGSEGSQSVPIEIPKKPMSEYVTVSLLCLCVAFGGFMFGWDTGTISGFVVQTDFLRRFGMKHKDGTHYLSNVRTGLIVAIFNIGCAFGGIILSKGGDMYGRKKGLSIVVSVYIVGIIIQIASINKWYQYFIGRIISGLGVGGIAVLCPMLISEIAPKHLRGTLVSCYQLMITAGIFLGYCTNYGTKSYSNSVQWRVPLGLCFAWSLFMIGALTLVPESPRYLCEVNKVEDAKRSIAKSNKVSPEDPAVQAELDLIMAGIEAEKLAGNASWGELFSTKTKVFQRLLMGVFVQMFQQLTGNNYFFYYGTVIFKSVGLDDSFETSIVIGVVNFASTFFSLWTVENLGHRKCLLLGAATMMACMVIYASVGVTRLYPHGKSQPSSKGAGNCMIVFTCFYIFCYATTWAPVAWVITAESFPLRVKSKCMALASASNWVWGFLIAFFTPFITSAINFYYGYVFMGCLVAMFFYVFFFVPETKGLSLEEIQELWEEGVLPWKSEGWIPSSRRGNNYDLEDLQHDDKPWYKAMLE
Protocol: as §2, §3

[1] = tested on: D-glucose uptake, strain MKY06; assay: Initial rate of D-glucose uptake with radioactively labeled sugar in strain MKY06 overexpressing the transporter; details: 10 mM D-glucose, 1 minute; empty-vector background subtracted
Protocol: Initial rates of sugar uptake of strain MKY06 expressing Stp2 (AtStp2) or Gal2 (ScGal2). Cells were grown on D-galactose or maltose (empty vector), harvested and incubated with the radioactively labeled sugars: 10 mM L-arabinose (A), 10 mM D-galactose (B) and 10 mM D-glucose (C) for 2 minutes (L-arabinose) or 1 minute (D-galactose, D-glucose). The background values determined with cells containing the empty vector were subtracted.
as §2, with “used.” for “used. After different time intervals 10 ml of ice-cold 100 mM potassium phosphate buffer at pH 6.5 with 500 mM. D-glucose was added, and the suspension was immediately filtrated using Durapore® membrane filters (0.22 μm pore size, Millipore). The filter was washed two times with 10 ml of cold potassium phosphate buffer with 500 mM D-glucose.”, “5.0. […]” for “5.0.”

[2] = tested on: L-arabinose uptake, strain MKY06; assay: L-arabinose uptake kinetics with radioactively labeled sugar in strain MKY06 overexpressing the transporter; details: L-arabinose as the substrate; 0.1-50 mM, 2-minute intervals
Protocol: The initial rates of sugar uptake were measured as follows: a 50-0 aliquot of a sugar solution containing (1-^3H)-labeled L-arabinose, (U-^14C) labeled O-glucose (American Radiolabeled Chemicals Inc.) or (1-^14C) labeled D-galactose (Amersham) was incubated at 30° C. and was mixed with 100 μl of yeast suspensions having the same temperature, resulting in final sugar concentrations of 10 mM L-arabinose, D-glucose and D-galactose. For determination of L-arabinose uptake kinetics 0.1, 1, 5, 10, and 50 mM L-arabinose were used. After different time intervals 10 ml of ice-cold 100 mM potassium phosphate buffer at pH 6.5 with 500 mM. D-glucose was added, and the suspension was immediately filtrated using Durapore® membrane filters (0.22 μm pore size, Millipore). The filter was washed two times with 10 ml of cold potassium phosphate buffer with 500 mM D-glucose. Filters were transferred to 5 ml scintillation vials containing 4.5 ml. Rotiszint® eco plus (Roth) and the radioactivity measured in a scintillation counter. Uptake of radioactivity was nearly linear in time intervals up to 2 minutes. The results shown are average values for two to three independent experiments. Dry weight was determined by filtering 10 ml of the culture through a pre-weighted nitrocellulose filter (0.45 μm pore size; Roth, Germany). The filters were washed with demineralized water, dried in a microwave oven for 20 minutes at 140 W, and weighted again. KM and vmax values were calculated using the program GraphPad Prism 5.0.
For L-arabinose, uptake kinetics were determined by measuring L-arabinose uptake at various concentrations between 0.1 and 50 mM during 2-minute time intervals. While Gal2 turned out to transport L-arabinose with low affinity and high capacity, Stp2 mediated uptake of L-arabinose with low capacity but high affinity (Table 1).

For AraT, the “Glucose transport in the strain MKY06-3P” value (strain MKY06-3P) was “small amounts of glucose”.

With `O=C[C@H](O)[C@@H](O)[C@H](O)[C@H](O)CO` [D-glucose] the “Inhibition of L-arabinose uptake (Stp2)” value (Stp2) was “nearly completely inhibited” and the “Inhibition of L-arabinose uptake (Gal2)” value (Gal2) was “nearly completely inhibited”.

`O=C[C@H](O)[C@@H](O)[C@@H](O)[C@H](O)CO` [D-galactose] was tested, and the “Inhibition of L-arabinose uptake (Stp2)” value (Stp2) was “nearly completely inhibited” and the “Inhibition of L-arabinose uptake (Gal2)” value (Gal2) was “nearly completely inhibited”.

B1: Gal2: S. cerevisiae galactose permease Gal2, known to also transport L-arabinose (protein, UniProt P13181 1-574, looked up)
Galactose transporter: T2 sequence (P13181 1-574)
B1 was tested, and the D-glucose uptake rate [1] was 4.7 nmol/min/mg DM, the Km [2] was 57 mM and the vmax [2] was 2.2 +/− 0.26 nmol/min/mg DM.

B2: Stp2: transporter Stp2 from Arabidopsis thaliana, a protein of 498 amino acids (SEQ ID NO. 1) (protein, listed as Arabidopsis thaliana)
chain: T1 sequence (Q9LNV3 1-498)
With B2 the D-glucose uptake rate [1] was < 0.01 nmol/min/mg DM, the Km [2] was 4.5 mM and the vmax [2] was 0.6 +/− 0.08 nmol/min/mg DM.
